Experimental data from PMC11428563, “Systematic design and evaluation of aptamers for VEGF and PlGF biomarkers of Preeclampsia”.

Assays:
Details in all cases: protein: commercial; tags: His; chain copies: 2
[1] = target: T1, PlGF (Human PlGF / PGF (19-149) Protein, His Tag, Acrobiosystems PGF-H52H5) (human, UniProt P49763-2 19-149); test: BLI; kon 3.169e3 1/Ms; koff 2.150e-1 1/s; BLI (Octet R4, anti-penta-His HIS1K sensors): protein loaded in phosphate buffer pH 7.4 (PlGF 2.5 ug/mL, VEGF 10 ug/mL); aptamers 0-20 uM in 1X Sartorius Kinetics Buffer; 1:1 global fit, triplicate; temperature not stated
T1 sequence: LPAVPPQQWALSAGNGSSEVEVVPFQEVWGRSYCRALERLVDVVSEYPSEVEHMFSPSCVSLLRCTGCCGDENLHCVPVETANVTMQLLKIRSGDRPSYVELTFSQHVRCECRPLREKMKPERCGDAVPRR

[2] = target: T1, PlGF (Human PlGF / PGF (19-149) …); test: BLI; kon 1.772e4 1/Ms; koff 2.049e-1 1/s; BLI (Octet R4, anti-penta-His HIS1K sensors): protein loaded in phosphate buffer pH 7.4 (PlGF 2.5 ug/mL, VEGF 10 ug/mL); aptamers 0-20 uM in 1X Sartorius Kinetics Buffer; 1:1 global fit, triplicate; temperature not stated
[3] = target: T1, PlGF (Human PlGF / PGF (19-149) …); test: BLI; kon 2.746e3 1/Ms; koff 5.548e-7 1/s; BLI (Octet R4, anti-penta-His HIS1K sensors): protein loaded in phosphate buffer pH 7.4 (PlGF 2.5 ug/mL, VEGF 10 ug/mL); aptamers 0-20 uM in 1X Sartorius Kinetics Buffer; 1:1 global fit, triplicate; temperature not stated

B1: PlGF-Apt4 (ssRNA)
RNA: CGAAGAGACGCAGAGAAGC
Question: For B1, which Kd [1] is on record?
Answer: 49.7 µM

B2: PlGF-Apt2 (ssRNA)
RNA: ACAGGCACA
Question: With B2 as the binder, how does the Kd [2] read?
Answer: 17.7 µM

B3: PlGF-Apt3 (ssRNA)
RNA: AGAGAACGCAAGAGA
Question: B3 was tested. Which Kd [3] did it give?
Answer: 0.298 nM
